These results are taken from article PMC6402988 (Nature structural & molecular biology, 2019).

Where a chain is given by its changes, count along the chain named.

For test [1], the target named is T1, cleaved Ebola virus glycoprotein (EBOV GPCL) (Zaire ebolavirus, Mayinga-76).
T1 chain 1: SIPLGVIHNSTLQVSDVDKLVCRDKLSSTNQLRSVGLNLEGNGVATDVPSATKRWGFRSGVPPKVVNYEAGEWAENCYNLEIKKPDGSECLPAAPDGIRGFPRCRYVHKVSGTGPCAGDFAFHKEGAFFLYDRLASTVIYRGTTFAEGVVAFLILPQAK
T1 chain 2: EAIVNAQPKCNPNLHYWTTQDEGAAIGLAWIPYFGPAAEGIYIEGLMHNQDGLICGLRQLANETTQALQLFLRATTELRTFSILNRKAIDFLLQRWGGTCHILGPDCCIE
Kind of test: cell-based or functional assay.

The target in test [2] is T1, cleaved Ebola virus glycoprotein (EBOV …). Kind of test: BLI. On the technique in general: Biolayer interferometry detects binding as a change in optical thickness at a sensor tip.
The next test concerns the target SUDV GP ectodomain (Sudan ebolavirus; strain not named for …, UniProt Q66814). Kind of test: cell-based or functional assay.

B1: ADI-15946 IgG (antibody, V domains shown)
VH: EVQLVESGGGLVKPGGSLRLSCAASGFTFSNAWMSWVRQAPGKGLEWVGRIKSKTDGGTIDYAAPVKGRFTISRDDSKNTVYLQMTSLKTEDTAVYYCTTYTEDMRYFDWLLRGGETFDYWGQGTLVTVSS
VL: DIRLTQSPSSLSASVGDRVTITCRASHYISTYLNWYQQKPGKAPKLLIYAASNLQSGVPSRFSGSGFGTDFSLTISSLQPEDFATYHCQQSYSTPGRYTFGQGTKVEIK
In the case of B1, the “neutralization potency against rVSV-EBOV GPCL compared to rVSV-EBOV GPFL” value in test [1] came to 100 fold. In test [2], the “fold improvement in binding (KDapp) against full-length GP” value is 10000 fold, the “fold increased kon against EBOV GPFL” value stood at 10 fold and the “fold slower koff against EBOV GPFL” value was greater than 1000 fold.

B2: 46M3 (antibody, V domains shown)
VH: B1 VH with R106A
VL: B1 VL with S65Y, F67Y
Turning to B2, the “fold improvement in neutralization of authentic SUDV against parental ADI-15946” value with SUDV GP ectodomain was determined as 33 fold.

B3: ADI-15946 LC^WT:HC^IGL (antibody, V domains shown)
VH: not shown
VL: B1 VL
B3: the binding result in test [2] was “binds”.

B4: 46M2 (antibody, V domains shown)
VH: B1 VH with R106A
VL: B1 VL with S65Y
On to B4, for which, in the test with SUDV GP ectodomain, the “fold improvement in neutralization of authentic SUDV against parental ADI-15946” value came to 33 fold.
